Experimental data reported in PMC10911177, “Exploring the ATG9A interactome uncovers interaction with VPS13A” (Journal of cell science, 2024).

Target: T1, 3×Flag−His6−ATG9A (purified) (UniProt Q7Z3C6 1-839)
T1 construct: ATG9A; also called Flag−ATG9A; 3×Flag−ATG9A
T1 sequence (looked up): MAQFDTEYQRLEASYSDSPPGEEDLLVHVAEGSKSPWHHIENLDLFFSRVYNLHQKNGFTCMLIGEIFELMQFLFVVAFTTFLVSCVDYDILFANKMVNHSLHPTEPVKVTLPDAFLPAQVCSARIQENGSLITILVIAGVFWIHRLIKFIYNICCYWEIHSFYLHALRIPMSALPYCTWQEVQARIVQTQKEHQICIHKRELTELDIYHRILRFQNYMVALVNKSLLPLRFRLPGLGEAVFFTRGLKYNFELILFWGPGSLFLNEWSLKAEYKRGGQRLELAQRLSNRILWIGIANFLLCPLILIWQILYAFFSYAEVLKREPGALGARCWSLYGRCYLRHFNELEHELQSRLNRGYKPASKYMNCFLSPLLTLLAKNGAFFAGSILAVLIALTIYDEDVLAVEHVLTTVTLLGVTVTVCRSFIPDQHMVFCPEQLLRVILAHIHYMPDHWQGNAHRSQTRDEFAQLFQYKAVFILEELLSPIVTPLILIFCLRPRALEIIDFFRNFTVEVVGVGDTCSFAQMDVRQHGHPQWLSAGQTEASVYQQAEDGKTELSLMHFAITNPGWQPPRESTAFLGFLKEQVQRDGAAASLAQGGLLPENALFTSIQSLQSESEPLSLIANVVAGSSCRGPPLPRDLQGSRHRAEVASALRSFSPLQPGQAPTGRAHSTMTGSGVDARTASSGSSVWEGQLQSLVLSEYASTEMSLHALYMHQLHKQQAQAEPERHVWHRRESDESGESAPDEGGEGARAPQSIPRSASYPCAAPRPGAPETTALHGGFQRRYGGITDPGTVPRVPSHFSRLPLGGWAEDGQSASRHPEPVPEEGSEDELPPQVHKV
Assay: co-IP; in vitro IP: 100 μg purified 3×Flag−GFP−VPS13A fragment 4 mixed with 10 μg purified ATG9A at 4°C in 0.002% LMNG:CHS (5:1), GFP-Trap beads, four washes with VPS13 buffer with detergent; immunoblot
Conditions: both partners purified

binding result: binds
B1: 3×Flag−eGFP−VPS13A fragment 4 (purified) (domain or fragment, human, UniProt Q96RL7 2554-3174, looked up)
chain: VVWETKPKKKARWKPMSVKHTEKLEREFKEYTESSPSEDKVIQLDTNVPVRLTPTGHNMKILQPHVIALRRNYLPALKVEYNTSAHQSSFRIQIYRIQIQNQIHGAVFPFVFYPVKPPKSVTMDSAPKPFTDVSIVMRSAGHSQISRIKYFKVLIQEMDLRLDLGFIYALTDLMTEAEVTENTEVELFHKDIEAFKEEYKTASLVDQSQVSLYEYFHISPIKLHLSVSLSSGREEAKDSKQNGGLIPVHSLNLLLKSIGATLTDVQDVVFKLAFFELNYQFHTTSDLQSEVIRHYSKQAIKQMYVLILGLDVLGNPFGLIREFSEGVEAFFYEPYQGAIQGPEEFVEGMALGLKALVGGAVGGLAGAASKITGAMAKGVAAMTMDEDYQQKRREAMNKQPAGFREGITRGGKGLVSGFVSGITGIVTKPIKGAQKGGAAGFFKGVGKGLVGAVARPTGGIIDMASSTFQGIKRATETSEVESLRPPRFFNEDGVIRPYRLRDGTGNQMLQVMENGRFAKYKYFTHVMINKTDMLMITRRGVLFVTKGTFGQLTCEWQYSFDEFTKEPFIVHGRRLRIEAKERVKSVFHAREFGKIINFKTPEDARWILTKLQEAREPSPSL
notes: VPS13A, human, fragment 4, residues 2554-3174; Subcloned into pcDNA3.1(+); The methods partly write '3×Flag−eGFP−VPS13A' without 'fragment 4'; also called Flag−GFP−VPS13A4; 3×Flag-VPS13A fragment 4
